This passage reports screen value results from PMC5923425, “Structural analysis of human ARS2 as a platform for co-transcriptional RNA sorting” (Nature Communications, 2018).

B1: EGFP–ARS2 wt [human] / ZFC3H1 [human (endogenous in HEK 293T/17)] (parent complex)
chain 1: MGDSDDEYDRRRRDKFRRERSDYDRSRERDERRRGDDWNDREWDRGRERRSRGEYRDYDRNRRERFSPPRHELSPPQKRMRRDWDEHSSDPYHSGYEMPYAGGGGGPTYGPPQPWGHPDVHIMQHHVLPIQARLGSIAEIDLGVPPPVMKTFKEFLLSLDDSVDETEAVKRYNDYKLDFRRQQMQDFFLAHKDEEWFRSKYHPDEVGKRRQEARGALQNRLRVFLSLMETGWFDNLLLDIDKADAIVKMLDAAVIKMEGGTENDLRILEQEEEEEQAGKPGEPSKKEEGRAGAGLGDGERKTNDKDEKKEDGKQAENDSSNDDKTKKSEGDGDKEEKKEDSEKEAKKSSKKRNRKHSGDDSFDEGSVSESESESESGQAEEEKEEAEALKEKEKPKEEEWEKPKDAAGLECKPRPLHKTCSLFMRNIAPNISRAEIISLCKRYPGFMRVALSEPQPERRFFRRGWVTFDRSVNIKEICWNLQNIRLRECELSPGVNRDLTRRVRNINGITQHKQIVRNDIKLAAKLIHTLDDRTQLWASEPGTPPLPTSLPSQNPILKNITDYLIEEVSAEEEELLGSSGGAPPEEPPKEGNPAEINVERDEKLIKVLDKLLLYLRIVHSLDYYNTCEYPNEDEMPNRCGIIHVRGPMPPNRISHGEVLEWQKTFEEKLTPLLSVRESLSEEEAQKMGRKDPEQEVEKFVTSNTQELGKDKWLCPLSGKKFKGPEFVRKHIFNKHAEKIEEVKKEVAFFNNFLTDAKRPALPEIKPAQPPGPAQSLTPGLPYPHQTPQGLMPYGQPRPPILGYGAGAVRPAVPTGGPPYPHAPYGAGRGNYDAFRGQGGYPGKPRNRMVRGDPRAIVEYRDLDAPDDVDFF
chain 2: MATADTPAPASSGLSPKEEGELEDGEISDDDNNSQIRSRSSSSSSGGGLLPYPRRRPPHSARGGGSGGGGGSSSSSSSSQQQLRNFSRSRHASERGHLRGPSSYRPKEPFRSHPPSVRMPSSSLSESSPRPSFWERSHLALDRFRFRGRPYRGGSRWSRGRGVGERGGKPGCRPPLGGGAGSGFSSSQSWREPSPPRKSSKSFGRSPSRKQNYSSKNENCVEETFEDLLLKYKQIQLELECINKDEKLALSSKEENVQEDPKTLNFEDQTSTDNVSITKDSSKEVAPEEKTQVKTFQAFELKPLRQKLTLPGDKNRLKKVKDGAKPLSLKSDTTDSSQGLQDKEQNLTRRISTSDILSEKKLGEDEEELSELQLRLLALQSASKKWQQKEQQVMKESKEKLTKTKTVQQKVKTSTKTHSAKKVSTTAKQALRKQQTKAWKKLQQQKEQERQKEEDQRKQAEEEERRKREEEIRKIRDLSNQEEQYNRFMKLVGGKRRSRSKSSDPDLRRSLDKQPTDSGGGIYQYDNYEEVAMDTDSETSSPAPSPVQPPFFSECSLGYFSPAPSLSLPPPPQVSSLPPLSQPYVEGLCVSLEPLPPLPPLPPLPPEDPEQPPKPPFADEEEEEEMLLREELLKSLANKRAFKPEETSSNSDPPSPPVLNNSHPVPRSNLSIVSINTVSQPRIQNPKFHRGPRLPRTVISLPKHKSVVVTLNDSDDSESDGEASKSTNSVFGGLESMIKEARRTAEQASKPKVPPKSEKENDPLRTPEALPEEKKIEYRLLKEEIANREKQRLIKSDQLKTSSSSPANSDVEIDGIGRIAMVTKQVTDAESKLKKHRILLMKDESVLKNLVQQEAKKKESVRNAEAKITKLTEQLQATEKILNVNRMFLKKLQEQIHRVQQRVTIKKALTLKYGEELARAKAVASKEIGKRKLEQDRFGPNKMMRLDSSPVSSPRKHSAELIAMEKRRLQKLEYEYALKIQKLKEARALKAKEQQNISPVVEEEPEFSLPQPSLHDLTQDKLTLDTEENDVDDEILSGSSRERRRSFLESNYFTKPNLKHTDTANKECINKLNKNTVEKPELFLGLKIGELQKLYSKADSLKQLILKTTTGITEKVLHGQEISVDVDFVTAQSKTMEVKPCPFRPYHSPLLVFKSYRFSPYYRTKEKLPLSSVSYSNMIEPDQCFCRFDLTGTCNDDDCQWQHIQDYTLSRKQLFQDILSYNLSLIGCAETSTNEEITASAEKYVEKLFGVNKDRMSMDQMAVLLVSNINESKGHTPPFTTYKDKRKWKPKFWRKPISDNSFSSDEEQSTGPIKYAFQPENQINVPALDTVVTPDDVRYFTNETDDIANLEASVLENPSHVQLWLKLAYKYLNQNEGECSESLDSALNVLARALENNKDNPEIWCHYLRLFSKRGTKDEVQEMCETAVEYAPDYQSFWTFLHLESTFEEKDYVCERMLEFLMGAAKQETSNILSFQLLEALLFRVQLHIFTGRCQSALAILQNALKSANDGIVAEYLKTSDRCLAWLAYIHLIEFNILPSKFYDPSNDNPSRIVNTESFVMPWQAVQDVKTNPDMLLAVFEDAVKACTDESLAVEERIEACLPLYTNMIALHQLLERYEAAMELCKSLLESCPINCQLLEALVALYLQTNQHDKARAVWLTAFEKNPQNAEVFYHMCKFFILQNRGDNLLPFLRKFIASFFKPGFEKYNNLDLFRYLLNIPGPIDIPSRLCKGNFDDDMFNHQVPYLWLIYCLCHPLQSSIKETVEAYEAALGVAMRCDIVQKIWMDYLVFANNRAAGSRNKVQEFKFFTDLVNRCLVTVPARYPIPFSSADYWSNYEFHNRVIFFYLSCVPKTQHSKTLERFCSVMPANSGLALRLLQHEWEESNVQILKLQAKMFTYNIPTCLATWKIAIAAEIVLKGQREVHRLYQRALQKLPLCASLWKDQLLFEASEGGKTDNLRKLVSKCQEIGVSLNELLNLNSNKTESKNH
B2: EGFP–ARS2 wt [human] / ZCCHC8 [human (endogenous in HEK 293T/17)] (parent complex)
chain 1: B1 chain 1
chain 2: MAAEVYFGDLELFEPFDHPEESIPKPVHTRFKDDDGDEEDENGVGDAELRERLRQCEETIEQLRAENQELKRKLNILTRPSGILVNDTKLDGPILQILFMNNAISKQYHQEIEEFVSNLVKRFEEQQKNDVEKTSFNLLPQPSSIVLEEDHKVEESCAIKNNKEAFSVVGSVLYFTNFCLDKLGQPLLNENPQLSEGWEIPKYHQVFSHIVSLEGQEIQVKAKRPKPHCFNCGSEEHQMKDCPMPRNAARISEKRKEYMDACGEANNQNFQQRYHAEEVEERFGRFKPGVISEELQDALGVTDKSLPPFIYRMRQLGYPPGWLKEAELENSGLALYDGKDGTDGETEVGEIQQNKSVTYDLSKLVNYPGFNISTPRGIPDEWRIFGSIPMQACQQKDVFANYLTSNFQAPGVKSGNKRSSSHSSPGSPKKQKNESNSAGSPADMELDSDMEVPHGSQSSESFQFQPPLPPDTPPLPRGTPPPVFTPPLPKGTPPLTPSDSPQTRTASGAVDEDALTLEELEEQQRRIWAALEQAESVNSDSDVPVDTPLTGNSVASSPCPNELDLPVPEGKTSEKQTLDEPEVPEIFTKKSEAGHASSPDSEVTSLCQKEKAELAPVNTEGALLDNGSVVPNCDISNGGSQKLFPADTSPSTATKIHSPIPDMSKFATGITPFEFENMAESTGMYLRIRSLLKNSPRNQQKNKKASE
B3: EGFP–ARS2 wt [human] / hMTR4 [human (endogenous in HEK 293T/17)] (parent complex)
chain 1: B1 chain 1
chain 2: MADAFGDELFSVFEGDSTTAAGTKKDKEKDKGKWKGPPGSADKAGKRFDGKLQSESTNNGKNKRDVDFEGTDEPIFGKKPRIEESITEDLSLADLMPRVKVQSVETVEGCTHEVALPAEEDYLPLKPRVGKAAKEYPFILDAFQREAIQCVDNNQSVLVSAHTSAGKTVCAEYAIALALREKQRVIFTSPIKALSNQKYREMYEEFQDVGLMTGDVTINPTASCLVMTTEILRSMLYRGSEVMREVAWVIFDEIHYMRDSERGVVWEETIILLPDNVHYVFLSATIPNARQFAEWICHLHKQPCHVIYTDYRPTPLQHYIFPAGGDGLHLVVDENGDFREDNFNTAMQVLRDAGDLAKGDQKGRKGGTKGPSNVFKIVKMIMERNFQPVIIFSFSKKDCEAYALQMTKLDFNTDEEKKMVEEVFSNAIDCLSDEDKKLPQVEHVLPLLKRGIGIHHGGLLPILKETIEILFSEGLIKALFATETFAMGINMPARTVLFTNARKFDGKDFRWISSGEYIQMSGRAGRRGMDDRGIVILMVDEKMSPTIGKQLLKGSADPLNSAFHLTYNMVLNLLRVEEINPEYMLEKSFYQFQHYRAIPGVVEKVKNSEEQYNKIVIPNEESVVIYYKIRQQLAKLGKEIEEYIHKPKYCLPFLQPGRLVKVKNEGDDFGWGVVVNFSKKSNVKPNSGELDPLYVVEVLLRCSKESLKNSATEAAKPAKPDEKGEMQVVPVLVHLLSAISSVRLYIPKDLRPVDNRQSVLKSIQEVQKRFPDGIPLLDPIDDMGIQDQGLKKVIQKVEAFEHRMYSHPLHNDPNLETVYTLCEKKAQIAIDIKSAKRELKKARTVLQMDELKCRKRVLRRLGFATSSDVIEMKGRVACEISSADELLLTEMMFNGLFNDLSAEQATALLSCFVFQENSSEMPKLTEQLAGPLRQMQECAKRIAKVSAEAKLEIDEETYLSSFKPHLMDVVYTWATGATFAHICKMTDVFEGSIIRCMRRLEELLRQMCQAAKAIGNTELENKFAEGITKIKRDIVFAASLYL
B4: EGFP–ARS2 wt [human] / NCBP3 (endogenous) [human (endogenous in HEK 293T/17)] (parent complex)
chain 1: B1 chain 1
chain 2: MAAVRGLRVSVKAEAPAGPALGLPSPEAESGVDRGEPEPMEVEEGELEIVPVRRSLKELIPDTSRRYENKAGSFITGIDVTSKEAIEKKEQRAKRFHFRSEVNLAQRNVALDRDMMKKAIPKVRLETIYICGVDEMSTQDVFSYFKEYPPAHIEWLDDTSCNVVWLDEMTATRALINMSSLPAQDKIRSRDASEDKSAEKRKKDKQEDSSDDDEAEEGEVEDENSSDVELDTLSQVEEESLLRNDLRPANKLAKGNRLFMRFATKDDKKELGAARRSQYYMKYGNPNYGGMKGILSNSWKRRYHSRRIQRDVIKKRALIGDDVGLTSYKHRHSGLVNVPEEPIEEEEEEEEEEEEEEEEDQDMDADDRVVVEYHEELPALKQPRERSASRRSSASSSDSDEMDYDLELKMISTPSPKKSMKMTMYADEVESQLKNIRNSMRADSVSSSNIKNRIGNKLPPEKFADVRHLLDEKRQHSRPRPPVSSTKSDIRQRLGKRPHSPEKAFSSNPVVRREPSSDVHSRLGVPRQDSKGLYADTREKKSGNLWTRLGSAPKTKEKNTKKVDHRAPGAEEDDSELQRAWGALIKEKEQSRQKKSRLDNLPSLQIEVSRESSSGSEAES
B5: EGFP–ARS2 wt [human] / RBM7 [human (endogenous in HEK 293T/17)] (parent complex)
chain 1: B1 chain 1
chain 2: MGAAAAEADRTLFVGNLETKVTEELLFELFHQAGPVIKVKIPKDKDGKPKQFAFVNFKHEVSVPYAMNLLNGIKLYGRPIKIQFRSGSSHAPQDVSLSYPQHHVGNSSPTSTSPSRYERTMDNMTSSAQIIQRSFSSPENFQRQAVMNSALRQMSYGGKFGSSPLDQSGFSPSVQSHSHSFNQSSSSQWRQGTPSSQRKVRMNSYPYLADRHYSREQRYTDHGSDHHYRGKRDDFFYEDRNHDDWSHDYDNRRDSSRDGKWRSSRH

In the first assay the parent is B1. As to the kind of experiment: EGFP pull down, LC–MS/MS (AP–MS, TMT labelled); HEK 293T/17 cells; three independent affinity purifications per bait; read off a plot.
For chain 1 K719A, chain 1 K722A, chain 1 K734A, the screen value was approximately -2.8.

The variants in the next assay derive from B2. The description is as above.
Regarding chain 1 K719A, chain 1 K722A, chain 1 K734A, the screen value is approximately -1.7.

The next assay covers variants of B3. Described as above.
For chain 1 K719A, chain 1 K722A, chain 1 K734A, the screen value is approximately -2.7.

The variants in another assay derive from B4. The assay is described as above.
For chain 1 K719A, chain 1 K722A, chain 1 K734A, the screen value was approximately -3.1.

Variants of B5 are the subject of another assay. The assay is described as above.
For chain 1 K719A, chain 1 K722A, chain 1 K734A, the screen value is approximately -1.8.
